The results in this text go back to the nanobody polyreactivity screen of Harvey et al. (2022).

The nature of this data set: yeast display, Sf9 membrane polyspecificity reagent, FACS + sequencing; frameworks hold sequencing errors. A digest of the protocol: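 Sorting gates, low and high (top ~1%), were placed on anti-HA fluorescence to track expression and on streptavidin fluorescence to track reagent binding. A clone's polyreactivity label is taken from the gate it came out of. The reagent was 10% biotinylated, detergent-solubilized Sf9 membrane, applied for 1 hour at 4 °C to galactose-induced yeast display cells.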
Take “QVQLVESGGGLVQAGGSLRLSCAASGFTFSHYAMGWYRQAPGKEMELVAAITWSGGSTYYADSVKGRFTISRDNAKNTVYLQMNSLKPEDTAVYYCAAESYLDGGDYWGQGTQVTVSS”: the “polyreactivity (PSR sort gate)” value is recorded as “high polyreactivity”.
Take “QVQLVESGGGLVQAGGSLRLSCAASGFTFSKYAMGLYRQAPGKERELVAAITRRGSSTYYADSVKGRFTLSRDNAKNTVYLQMNSLKPEDTAVYYCNAPRPNGYLGEDNYWGQGTKVTVSS”: the “polyreactivity (PSR sort gate)” value is “high polyreactivity”.
Next, “QVQLVESGGGLVQAGGSLRLSCAASGFTFSKYAMGWYRQAPGKERELVAAISRSAGSTYYADSVKGRFTISRDNAKNTVYLQMNSLKPEDNAVYYCARDNPRSPSGYNYWGQGSQVTVSS”: “high polyreactivity”; “QVQLVESGGGLVQAGGSLRLSCAASGFTFSKYAMGWYRQAPGKERELVAAITRRGSSTYYADSVKGRFTISRDNAKNTVYLQMNSLKPEDTAVYYCNAPRPNGYLGEDNYWGQGTQVTVSS”: “high polyreactivity”; “QVQLVESGGGLVQAGGSLRLSCAASGFTFSKYAMGWYRQAPGKERELVASIDDGGSTNYADSVKGRFTISRDNAKNTVYLQKNSLKPEDTAVYYCNASYPTGYWYYVIVQYDYWGQGTQVTVSS”: “low polyreactivity”.
In the case of “QVQLVESGGGLVQAGGSLRLSCAASGFTFSKYAMGWYRQAPVKERELVATITRGGNTYYADSVKGRFTISRDNAKNTVYLQMNSLKPEDTAVYYCNTGRRNRLYDYDYWGQVTQVTVSS” it was “high polyreactivity”; in that of “QVQLVESGGGLVQAGGSLRLSCAASGFTFSKYTMGWYRQAPGKERELVAAITSGGSTYYADSVKGRFTISRDNAKNTVYLQMNSLKPEDTAVYYCNAESRHVFEDEYWGQGTQVTVSS”, “low polyreactivity”.
Regarding “QVQLVESGGGLVQAGGSLRLSCAASGFTFSLYGMGWYRQAPGKERELVAAIRSGGSRNYADSVKGRFTISRDNAKNTVYLQMNSLKPEDTAVYYCATDIHSVHNNRDKHDYDYWGQGTQVTVSS”, the “polyreactivity (PSR sort gate)” value is listed as “low polyreactivity”.
In the case of “QVQLVESGGGLVQAGGSLRLSCAASGFTFSLYGMGWYRQAPGKERELVAAIRSGGSTNYADSVKGRFTISRDNAKNTVYLQMNSLKPEDTAVYYCATDIHSVHNNRDKHDYDYWGQGTQVTVSS” it was “low polyreactivity”; in that of “QVQLVESGGGLVQAGGSLRLSCAASGFTFSLYTKGWYRQATGKERELVADISDGGITNYADSVKGRFTISRDNAKNTVYLQMHSLKPEDTAVYYCAADYQFLFFWNLFYEDYDYWGQGTQVTVSS”, “high polyreactivity”.
Next, “QVQLVESGGGLVQAGGSLRLSCAASGFTFSQYVMGWSRQAPGKERELVASITGKGGSTRYADSVKGRFTISRDNAKNTVYLQMNSLKQEDTAVYYCAARYVYFRWGSFDYWGQGTQVTVSS”: “high polyreactivity”; “QVQLVESGGGLVQAGGSLRLSCAASGFTFSRKAMGWYRQAPGKERELVASITRSGASTYYADSVKGRFTISRDNAKNTVYLQMNSLKPEDTAVYYCNAYYVALPPNMDYWGQGTQVTLSS”: “high polyreactivity”.
With “QVQLVESGGGLVQAGGSLRLSCAASGFTFSRNTMGWYRQAPGKARELVARISASGGSTYYADSVKGRFTISRDNAKNTVYLQMNSLKPEDTAVYYCAAVYRRYGGSRYDYWGQGTQVTVSS”, the “polyreactivity (PSR sort gate)” value is “high polyreactivity”.
“QVQLVESGGGLVQAGGSLRLSCAASGFTFSRNVMGWYRQAPGKERELVADITLSGASTYYADSVKGRFTISRDNAKNTVYLQMNSLKPEDTAVYYCAADPYHWRWGWRLDYWGQGTQVTVSS”: the “polyreactivity (PSR sort gate)” value was “low polyreactivity”.
Next, “QVQLVESGGGLVQAGGSLRLSCAASGFTFSRYAMGWYIQAPGKERELVAAITRGGSTNYADSVKGRFTISRDNAKNTVYLQMNSLKPEDTAVYYCAVRIRYSTNAYYYWGQGTQVTVSS”: “high polyreactivity”; “QVQLVESGGGLVQAGGSLRLSCAASGFTFSRYAMGWYRQAPGKERELVAAISYSGGRTYYADSVKGRFTISRDNAKNTVYLQMNSLKPEDTAVYYCNATWQSGHGWGQGTQVTVSS”: “high polyreactivity”; “QVQLVESGGGLVQAGGSLRLSCAASGFTFSRYTMGWYRQAPGKERELVAAINRRGGSTYYADSVKGRFTISRDNAKNTVYLQMNSLKPEDTAVYYCAAAVYLGRFGVILGYWGQGTQVTVSS”: “high polyreactivity”.
On to “QVQLVESGGGLVQAGGSLRLSCAASGFTFSRYTMGWYRQAPGKERELVAAISFSGVRTYYADSVKGRFTISRDNAKNSVYLQMNSLKPEDTAVYYCNRVSRTRGLNLYDYWGQGTQVTVSS”, for which the “polyreactivity (PSR sort gate)” value is on record as “high polyreactivity”.
Consider “QVQLVESGGGLVQAGGSLRLSCAASGFTFSSYAMGGYRQAPGKERELVAAISSNGRTYYADSVKGRFTISRDNAKNTVYLQMNSQKREDTAVYYCARNIPVSYYRYGYWGQGTQVTVSS”, for which the “polyreactivity (PSR sort gate)” value was “high polyreactivity”.
On to “QVQLVESGGGLVQAGGSLRLSCAASGFTFSSYAMGWSRQAPGKERELVAAITISGGRTYYADSVKGRFTISRDNAKNTVYLQMNSLIPEDTAVYYCAAVGRLARRDYWGQGTQVTVSS”, for which the “polyreactivity (PSR sort gate)” value is recorded as “high polyreactivity”.
“QVQLVESGGGLVQAGGSLRLSCAASGFTFSSYAMGWYRQAPGKERELVAAITGGGSRTYYADSVKGRFTISRDNAKNTVYLQMYSLKPEDTAVYYCAKGLSTGRAYRGYDYWGQGTQVTVSS”: the “polyreactivity (PSR sort gate)” value is “high polyreactivity”.
In the case of “QVQLVESGGGLVQAGGSLRLSCAASGFTFSSYAMGWYRQAPGKERELVAAITQSGGRTYYADSVKGRFTISRDNAKNTVYLQMNSLKPEDTAVYYCAADVPLWYDYGGQGTQVTVSS” it was “low polyreactivity”; in that of “QVQLVESGGGLVQAGGSLRLSCAASGFTFSTNAMAWYRQAPGKERELVAAITSSGGSTYYADSVKGRFTISRDNAKNTVYLQMNSLKPEDTAVYYCATGPSQVGGDYWGQGTQVTVSS”, “high polyreactivity”; in that of “QVQLVESGGGLVQAGGSLRLSCAASGFTFSTNAMGWYRQAPGKERELVAAISKSGVSTYYADSVKGRFTISRDNAKNTVYLQMNSLKTEDTAVYYCAADPKIALYKVWRYDYWGQGTQVTVSS”, “high polyreactivity”.
With “QVQLVESGGGLVQAGGSLRLSCAASGFTFSTYAMGWYRQAPGKERELVAAISRSGGSTYYADSVKGRFTISRDNAKNTVYLQMNSLKPEDTAVYYCAADGLRRESSYYYWGQGTQVTVSS”, the “polyreactivity (PSR sort gate)” value is “high polyreactivity”.
In the case of “QVQLVESGGGLVQAGGSLRLSCAASGFTFSTYAMGWYRQAPGKESELVAVISGGDSTSYADSVKGRFTISRDNAKNTVYLQMNSLKPEDTAVYYCAADRYGGYYGDTYYTGLFNYWGQGTQVTVSS” it was “high polyreactivity”.
For the sequence “QVQLVESGGGLVQAGGSLRLSCAASGFTFSVYAMGWYRQAPGKERELVAVITKRGGSTYYADSVKGRFTISRDNAKNTVYLQMNSLKPEDTAVYYCNAYLQGKIFPYGYWGQGTQVTVSS”, the “polyreactivity (PSR sort gate)” value is given as “high polyreactivity”.
Take “QVQLVESGGGLVQAGGSLRLSCAASGFTFSVYVMGWYRQAPGKERELVAAISSGGDTTYADSVKGRFTISRDNAKNTVYLQMNSLKPEDTAVYYCAAYRVILYYLYDYWGQGTQVTVSS”: the “polyreactivity (PSR sort gate)” value is “low polyreactivity”.
In the case of “QVQLVESGGGLVQAGGSLRLSCAASGFTFSWNTMGWYRQAPGKERELVATISGSGGRTYYADSVKGRFTISRDKAKNTVYLQLNSLKPEDTAVYYCAKRRASRYYWGQGTQVTVSS” it was “high polyreactivity”; in that of “QVQLVESGGGLVQAGGSLRLSCAASGFTFSWNVMGWYRQAPGKERELVAAISTSYGGTYYADSVKGRFTISRDNAKNTVYLQMNSLKPEDTAVYYCATLYYPNTSYEYYYWGQGTQVTVSS”, “low polyreactivity”.
